This sample holds only a part of the variants without activity.
B1: TPR 5TU (parent)
chain: GGAUCUUCUCGAUCUAACAAAAAAGACAAAUCUGCCACAAAGCUUGAGAGCAUCUUCGGAUGCAGAGGCGGCAGCCUUCGGUGGCGCGAUAGCGCCAACGUUCUCAACUAUGACACGCAAAACGCGUGCUCCGUUGAAUGGAGUUUAUCAUG

Variants of: B1
Test: polymerase ribozyme fitness, log enrichment relative to wild type (log ratio); higher = more active; in vitro selection for triplet polymerase activity
Outline: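 Each subunit of a heterodimeric triplet polymerase ribozyme was represented by a PCR-built, transcribed mutant library that underwent triplicate single-round in vitro selection with frozen incubation at −7 °C. Extended constructs were recovered by gel excision, streptavidin-bead capture and RT-PCR, and Illumina sequencing of input and output libraries kept genotypes with ≥10 input reads and ≥1 read per output. Fitness is the logarithm of genotype enrichment relative to wild-type enrichment, from inverse-variance-weighted replicate averages, with a logarithm base of 2.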

Variant	polymerase ribozyme fitness (log ratio)
U4A A28U C93U A97U C105G G126A G136U	≤ -4.2
A3U G25U C27U C36A C87U C105G C118U G152C	≤ -4.2
U4A A21U C38U C85A C87G C103A	≤ -4.2
U4C A12G C14U A40G G50A G84U U145C	≤ -4.2
A3G A19C G92A A98G	-3.18
A3U C51U U56G G58C G59A A73G	-3.64
A3G G11C C87A A91U A137G	≤ -4.2
A3C U90A	-4.17
A3U A47C C93U C118U	-2.05
A3U C87G A113C	-4.19
A3U A23U C96U	≤ -4.2
A3U C5G A19U C36U G83A	-3.1
A3G A60C C93U U145G	-2.53
A3G G46C C54A U146C	-3.68
U4A U9C C27G U55A G70C C85A U127G A142U	≤ -4.2
A3G C8A U44A A47C U56A G84C C87G	≤ -4.2
U4A C18U C79G A91U A142C U148C	≤ -4.2
A3G A12G A29G C38U G42C G86U A138C	≤ -4.2
U4C A16G A21G A41C A49U U56A G86A U135A A150G	≤ -4.2
U4C A19G C76G G86U A89G A106C U134G	≤ -4.2
A3G U13A U56A C96A A138G	≤ -4.2
U4A G11C A20U A28U G143U U146G	≤ -4.2
A3U U4G U55A A119C	-1.29
A3U A47C C57A	-0.307

Variant	polymerase ribozyme fitness (log ratio)
A3G U9G A16G A21C G84A G133C G141A	≤ -4.2
A3U G84A G94A A98C G124A	-0.883
U4A A26G A49C A107G	≤ -4.2
A3U C35U C54A C85G	≤ -4.2
U4A C8U C108G G140C	≤ -4.2
A3U A16C A60G C87A U102G C108G U127A U145G	≤ -4.2
A3U C114U C118G A137C G141C	≤ -4.2
A3U C8U C96U	-1.89
A3U U7G C87A A91G C103U U135C	≤ -4.2
A3C U56G C57G C116G	-2.89
U4A C103A	-2.38
U4A C35G G46A C75G G94C C105G	≤ -4.2
A3U A20U G50C	≤ -4.2
U4A A37U G94C A150G	-4.19
A3G A29G A39G G86U C99G	≤ -4.2
A3U C93A	-2.19
A3U C93G	-2.5
A3G G71U C96A A107G C116U C125G	≤ -4.2
U4A C10U A17G A21C C43U G92A C105A G124C	≤ -4.2
A3G G94C	-1.07
A3G U7G C38U A40G C54G C95U U145A	≤ -4.2
U4A G34U U61G G70A C99U A107C U139G	≤ -4.2
A3U C10U U56A C96U C116U G143A	-3.56
U4A U45A C57U A91C	≤ -4.2

Variant	polymerase ribozyme fitness (log ratio)
A3G A30G C38A G83A U101G	≤ -4.2
A3U C14U A40U A52U G84A G112C	≤ -4.2
A3G A20U C27G G42A U56A U77G G86A G117U G133C	≤ -4.2
A3U C51U C95U	-1.09
A3U A23C	-3.76
A3U G11A C14G U53C C76G G117U	≤ -4.2
A3G C14G U61G G71A G86C A91C C105G C114G G143A U145A	≤ -4.2
A3G C27U U55A U90C G94U C114G C116A	≤ -4.2
A3U C96U A97G	0.661
A3U A22C U31C U61A	-2.45
U4C A12G U31G G94C A121G	-0.0351
A3G U4G U15A C27U C38A C57G G92A A119U	≤ -4.2
A3U U53A U82C C87G C96U C125G	≤ -4.2
A3G A91U	≤ -4.2
A3U A16U C54U U55A C85U A98C C99U C129G G152U	≤ -4.2
A3U U31C C57U G86A	-1.99
A3U G58C	-0.0781
A3U A17C A89U C132U	-1.09
A3U U31G C36U C96A	-2.99
U4A U6A C36U C57G G68U C79G A91C	≤ -4.2
A3G G86A	-1.52
A3U A20C G58C A73U G81A A147C	≤ -4.2
A3U C5A U15C A19G C57G C118G G136A G141C A142C	≤ -4.2
A3U C38A C87U C95U G128C	≤ -4.2

Variant	polymerase ribozyme fitness (log ratio)
U4A A17C G94A C149U	-1.61
A3U A29C U61C	≤ -4.2
A3G U44G C57A G59U G68C C87G	≤ -4.2
A3U U4A C5U C14G A16U A30C G83U G100A	≤ -4.2
A3U U145C	-0.205
U4A U53A U82A A91U A115G U148G	≤ -4.2
U4C A21U C57G A60G C85A A89C G94A	-2.06
U4A C51U G94C A98U	-1.63
U4A G11A A26C A60G G84U G126U C149G	≤ -4.2
U4A A12C U55A G84U	-2.4
U4A A21C	0.483
U4C A19U G86U	-2.06
U4A G84A	-0.288
A3C U56G C93U C114G U134A U148C	≤ -4.2
A3U A28C U55G U56G C63G G86C A91C	≤ -4.2
A3U C8A A17G U56A G59A C85A A120G	≤ -4.2
A3U G48A A89G C95A U102G	≤ -4.2
U4C A22U A26U A40C A52U G67A U90A C99A A150U	≤ -4.2
A3G U6G U90G C103U G141C	≤ -4.2
A3G A16U U53A C75U G92U	-3.54
A3G C93A C108U C125G A142G U145G U146A	≤ -4.2
A3U A52G C96G C131U	-0.0465
A3G U15A U90C G94U G124A C125U	≤ -4.2
A3U A49U U55C A91U	≤ -4.2

Variant	polymerase ribozyme fitness (log ratio)
A3U C8U C14G A19C U33A A52C G70A C79G C87G G152U	≤ -4.2
A3G A23C C75A G88A C99G C108U G143C	≤ -4.2
A3U C35A C43A A52G G88A C108G	≤ -4.2
A3U C36U C95U	-3.09
A3G G11A C32U C85G C87A G124U	≤ -4.2
A3G C93U	-1.78
A3U A60G G70C G80C G86A U135G U144A	≤ -4.2
A3U U53A G84U A138G G152A	≤ -4.2
A3G A12C A39G A97U G133A G143C	≤ -4.2
A3U G70A A89C U139C U144A	≤ -4.2
A3G C14U G42C G59A C96U A122U U146C	≤ -4.2
A3G U31G G50A C95G C118G A138C U146A G152U	≤ -4.2
U4C A20G C85A A98C A115G	-2.8
A3U U56A	-1
U4A C132G U139G	-3.71
U4A C5G C8G U9G U53A C54A C72A C79A C85U A115C U139A G140C	≤ -4.2
A3U G83A C87U U111G	≤ -4.2
A3U C5A A30U A39U A49U C99U G124A	≤ -4.2
U4A A39C U53A C96U C108U A120U C125U	≤ -4.2
A3G A12C G62U G70C C79G G81A G84A A147C	≤ -4.2
A3G A39U G59C G83U	-3.56
A3U A30G C35G A39U G59A A60C C87U U134A	≤ -4.2
U4A U15G A91C C114U C125A	≤ -4.2
A3U A20U A41G A49G A64U C108G	≤ -4.2

Variant	polymerase ribozyme fitness (log ratio)
A3U C36U U56G A60C U61G C79U C93U C99U G112C U144A A150C	≤ -4.2
A3U C57A	-0.997
A3U C57U	0.223
U4C A17U G50U G58A G92C C99U G117U	≤ -4.2
A3U A52C G86U A119U G141U	-3.78
A3G C32G C35U A49C G50C C85A C103U C118G	≤ -4.2
A3U A17U U56A G83U C93G C96G C125G G136C	≤ -4.2
A3G U13C A98U A107U	-4
U4A C8A A20U A29C A40G G70C U101A A120U	≤ -4.2
U4A C8A U56A A122G G141A	-4.11
A3G C85U	-1.05
A3G C85G	-3.16
A3U A17C G94C	-0.825
A3G G94U C103U U127C U134C G136A	-3.9
A3U C96G	-1.47
A3U C96A	-0.199
A3U G80U G94U U104G C108U G126C U148A	≤ -4.2
A3U G46A A113U	-3.1
A3G A23U C85A A106U G133U G143U	≤ -4.2
U4C A22G G86A	-1.64
A3G A20C A29U A41G C54U C87U C95U U135G	≤ -4.2
A3U C14G A30U U55G C95U	≤ -4.2
A3U C36U	-2.21
A3G G83A G86U C118U	-3.29

Variant	polymerase ribozyme fitness (log ratio)
A3U U4A A16U U31A C85U G88A C125U U146G	≤ -4.2
A3U C38A C85G C99U G124A	-3.77
U4A C51G G84A A106U C118A	≤ -4.2
A3U C18A A22U A37G C85U	-3.29
A3U A22C C87A G92U	-0.18
A3U C5G C18U U31A C76U G94U	-1.46
A3G A49C C51U G59C C95U C131G	≤ -4.2
A3U A73G G86U C129A A137G	≤ -4.2
U4C A17C G42A G50C U53A G62A U90G A120U	≤ -4.2
U4A A60U G86A A107G A122C	≤ -4.2
U4A U15G C87U	0.183
A3G C87U	-0.743
A3G C18A C93G C123U C131U	-1.32
U4A G48A C85A C93A A147C	≤ -4.2
U4A A29G U61A G94U G126U G133U U151G	≤ -4.2
U4A A22U C63U G67A C75A G94A C96U	≤ -4.2
A3G A29G U82A	≤ -4.2
U4A C14G A40G	-3.69
A3G A19U U55C G84A	-0.956
A3G A17U C85A A106G A107U C118G U134A A142G C149U	≤ -4.2
A3G A17C G143C	-2.6
A3U C85A	-1.48
A3U G83A C118G A142C	-3.66

— the RNAGym collection of RNA variant scans (doi:10.1073/pnas.2313332121)
